From IntAct's records for PubMed 15467741

B1: Merlin (Homo sapiens), P35240-3 (parent)
chain: MAGAIASRMSFSSLKRKQPKTFTVRIVTMDAEMEFNCEMKWKGKDLFDLVCRTLGLRETWFFGLQYTIKDTVAWLKMDKKVLDHDVSKEEPVTFHFLAKFYPENAEEELVQEITQHLFFLQVKKQILDEKIYCPPEASVLLASYAVQAKYGDYDPSVHKRGFLAQEELLPKRVINLYQMTPEMWEERITAWYAEHRGRARDEAEMEYLKIAQDLEMYGVNYFAIRNKKGTELLLGVDALGLHIYDPENRLTPKISFPWNEIRNISYSDKEFTIKPLDKKIDVFKFNSSKLRVNKLILQLCIGNHDLFMRRRKADSLEVQQMKAQAREEKARKQMERQRLAREKQMREEAERTRDELERRLLQMKEEATMANEALMRSEETADLLAEKAQITEEEAKLLAQKAAEAEQEMQRIKATAIRTEEEKRLMEQKVLEAEVLALKMAEESERRAKEADQLKQDLQEAREAERRAKQKLLEIATKPTYPPMNPIPAPLPPDIPSFNLIGDSLSFDFKDTDMKRLSMEIEKEKVEYMEKSKHLQEQLNELKTEIEALKLKERETALDILHNENSDRGGSSKHNTIKKPQAQGRRPICI
partner: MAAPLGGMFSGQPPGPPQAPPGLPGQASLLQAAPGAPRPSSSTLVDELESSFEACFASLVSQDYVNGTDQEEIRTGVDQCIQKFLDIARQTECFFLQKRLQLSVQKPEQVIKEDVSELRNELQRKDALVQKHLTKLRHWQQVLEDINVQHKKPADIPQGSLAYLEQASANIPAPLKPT
B2: Merlin (Homo sapiens), P35240-1 (parent)
chain: MAGAIASRMSFSSLKRKQPKTFTVRIVTMDAEMEFNCEMKWKGKDLFDLVCRTLGLRETWFFGLQYTIKDTVAWLKMDKKVLDHDVSKEEPVTFHFLAKFYPENAEEELVQEITQHLFFLQVKKQILDEKIYCPPEASVLLASYAVQAKYGDYDPSVHKRGFLAQEELLPKRVINLYQMTPEMWEERITAWYAEHRGRARDEAEMEYLKIAQDLEMYGVNYFAIRNKKGTELLLGVDALGLHIYDPENRLTPKISFPWNEIRNISYSDKEFTIKPLDKKIDVFKFNSSKLRVNKLILQLCIGNHDLFMRRRKADSLEVQQMKAQAREEKARKQMERQRLAREKQMREEAERTRDELERRLLQMKEEATMANEALMRSEETADLLAEKAQITEEEAKLLAQKAAEAEQEMQRIKATAIRTEEEKRLMEQKVLEAEVLALKMAEESERRAKEADQLKQDLQEAREAERRAKQKLLEIATKPTYPPMNPIPAPLPPDIPSFNLIGDSLSFDFKDTDMKRLSMEIEKEKVEYMEKSKHLQEQLNELKTEIEALKLKERETALDILHNENSDRGGSSKHNTIKKLTLQSAKSRVAFFEEL
partner: B1 partner

Variants of: B1
Details: with med28_human MED28, Q9H204

Row | effect of a mutation on the interaction | Variant
1 | increasing interaction | MAGAIASRMSFSSLKRKQPKTFTVRIVTMDAEMEFNCEMKWKGKDLFDLVCRTLGLRETWFFGLQYTIKDTVAWLKMDKKVLDHDVSKEEPVTFHFLAKFYPENAEEELVQEITQHLFFLQVKKQILDEKIYCPPEASVLLASYAVQAKYGDYDPSVHKRGFLAQEELLPKRVINLYQMTPEMWEERITAWYAEHRGRARDEAEMEYLKIAQDLEMYGVNYFAIRNKKGTELLLGVDALGLHIYDPENRLTPKISFPWNEIRNISYSDKEFTIKPLDKKIDVFKFNSSKLRVNKLILQLCIGNHDLFMRRRKADSLEVQQMKAQAREEKARKQMERQRLAREKQMREEAERTRDELERRLLQMKEEATMANEALMRSEETADLLAEKAQITEEEAKLLAQKAAEAEQEMQRIKATAIRTEEEKRLMEQKVLEAEVLALKMAEESERRAKEADQLKQDLQEAREAERRAKQKLLEIATKPTYPPMNPIPAPLPPDIPSFNLIGDSLSFDFKDTDMKRLAMEIEKEKVEYMEKSKHLQEQLNELKTEIEALKLKERETALDILHNENSDRGGSSKHNTIKKPQAQGRRPICI [S518A]

Variants of: B2
Details: with med28_human MED28, Q9H204

Row | effect of a mutation on the interaction | Variant
2 | increasing interaction | MAGAIASRMSFSSLKRKQPKTFTVRIVTMDAEMEFNCEMKWKGKDLFDLVCRTLGLRETWFFGLQYTIKDTVAWLKMDKKVLDHDVSKEEPVTFHFLAKFYPENAEEELVQEITQHLFFLQVKKQILDEKIYCPPEASVLLASYAVQAKYGDYDPSVHKRGFLAQEELLPKRVINLYQMTPEMWEERITAWYAEHRGRARDEAEMEYLKIAQDLEMYGVNYFAIRNKKGTELLLGVDALGLHIYDPENRLTPKISFPWNEIRNISYSDKEFTIKPLDKKIDVFKFNSSKLRVNKLILQLCIGNHDLFMRRRKADSLEVQQMKAQAREEKARKQMERQRLAREKQMREEAERTRDELERRLLQMKEEATMANEALMRSEETADLLAEKAQITEEEAKLLAQKAAEAEQEMQRIKATAIRTEEEKRLMEQKVLEAEVLALKMAEESERRAKEADQLKQDLQEAREAERRAKQKLLEIATKPTYPPMNPIPAPLPPDIPSFNLIGDSLSFDFKDTDMKRLAMEIEKEKVEYMEKSKHLQEQLNELKTEIEALKLKERETALDILHNENSDRGGSSKHNTIKKLTLQSAKSRVAFFEEL [S518A]
